Source: paper PMC11685497 (Nature Communications, 2024)

T1: wild-type soluble CD73 (ecto-5'-nucleotidase), recombinant (Homo sapiens)
T1 chain: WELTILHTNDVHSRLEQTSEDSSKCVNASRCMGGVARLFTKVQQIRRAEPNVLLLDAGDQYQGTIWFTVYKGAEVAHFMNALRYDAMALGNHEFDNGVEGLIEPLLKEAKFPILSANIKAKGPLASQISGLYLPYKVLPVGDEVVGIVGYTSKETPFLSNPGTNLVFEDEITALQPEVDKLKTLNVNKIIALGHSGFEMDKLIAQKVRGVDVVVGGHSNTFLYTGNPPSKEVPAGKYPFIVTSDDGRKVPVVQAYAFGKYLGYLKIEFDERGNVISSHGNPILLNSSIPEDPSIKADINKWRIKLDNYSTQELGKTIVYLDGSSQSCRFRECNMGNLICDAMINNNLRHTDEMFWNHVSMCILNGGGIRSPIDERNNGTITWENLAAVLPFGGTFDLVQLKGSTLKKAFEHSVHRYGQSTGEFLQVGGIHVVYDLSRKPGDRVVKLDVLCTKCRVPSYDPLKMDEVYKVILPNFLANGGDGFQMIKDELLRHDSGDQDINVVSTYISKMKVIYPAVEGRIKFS


Tests used:
[1] = biological target: wild-type soluble CD73 (ecto-5'-nucleotidase), recombinant (human); test: cryo-EM structure
[2] = biological target: T1, wild-type soluble CD73 …; test: HDX-MS
[3] = biological target: human CD73, membrane-bound, on CHO-K1 cells (CHO-K1-huCD73-3F4) (Homo sapiens, UniProt P21589); test: flow cytometry on cells
[4] = biological target: T1, wild-type soluble CD73 …; test: negative-stain EM

Row | Molecule | stoichiometry N [1] | binding result [2] | EC50 [3] [nM] | binding result [4]
1 | HB0038 (humanized anti-human CD73 monoclonal IgG1, L234A/L235A) (antibody, V domains shown) VH: QVQLVESGGGLVKPGGSLRLSCAASGFTFSKYAMSWIRQAPGKGLEWVAEISSGGGYINYADSVKGRFTISRDNAKNSLYLQMNSLRAEDTAVYYCARAIYYYGSSYNYYAMDYWGQGTTVTVS VL: DIQMTQSPSSLSASVGDRVTITCRASQDVGTAEAWYQQKPGKAPKLLIYWASTRHTGVPSRFSGSGSGTDFTLTISSLQPEDFATYYCQQYSSYPLTFGQGTKL | – | binds | 11.8 | –
2 | HB0038 Fab (Fab, V domains shown) VH: QVQLVESGGGLVKPGGSLRLSCAASGFTFSKYAMSWIRQAPGKGLEWVAEISSGGGYINYADSVKGRFTISRDNAKNSLYLQMNSLRAEDTAVYYCARAIYYYGSSYNYYAMDYWGQGTTVTVS VL: DIQMTQSPSSLSASVGDRVTITCRASQDVGTAEAWYQQKPGKAPKLLIYWASTRHTGVPSRFSGSGSGTDFTLTISSLQPEDFATYYCQQYSSYPLTFGQGTKL | – | – | – | binds

Second part, the molecule after the results:

Row | stoichiometry N [1] | binding result [2] | EC50 [3] [nM] | binding result [4] | Molecule
3 | 2 | – | – | – | wild-type soluble CD73 (ecto-5'-nucleotidase), recombinant (enzyme)
4 | – | binds | – | – | HB0039 Fab (Fab, V domains shown) VH: QVQLVQSGAEVKKPGASVKLSCKASGYTFTSYWIHWVRQAPGQGLEWIGMIHPNSGSTYYNEKFKGRATLTVDKSTSTAYMELSSLRSEDTAVYYCARYYGSDYEWYFDVWGQGTTV VL: IQMTQSPSSMSASVGDRVTITCKASQNVRTAVVWYQQKPGKAPKALIYLASNRHTGVPDRFSGSGSGTDFTLTISSLQPEDFATYFCLQHWNYPYTFGQGTKL
5 | – | – | 0.24 | binds | HB0039 (humanized anti-human CD73 monoclonal IgG1, L234A/L235A) (antibody, V domains shown) VH: QVQLVQSGAEVKKPGASVKLSCKASGYTFTSYWIHWVRQAPGQGLEWIGMIHPNSGSTYYNEKFKGRATLTVDKSTSTAYMELSSLRSEDTAVYYCARYYGSDYEWYFDVWGQGTTV VL: IQMTQSPSSMSASVGDRVTITCKASQNVRTAVVWYQQKPGKAPKALIYLASNRHTGVPDRFSGSGSGTDFTLTISSLQPEDFATYFCLQHWNYPYTFGQGTKL
